Biological target: the molecule itself
Assay: SDS-PAGE under non-reducing and reducing conditions with anti-Flag western blot

B1: Unprocessed Activin E precursor from Construct I (natural protein, human, UniProt P58166 20-350, looked up)
chain: QGTGSVCPSCGGSKLAPQAERALVLELAKQQILDGLHLTSRPRITHPPPQAALTRALRRLQPGSVAPGNGEEVISFATVTDSTSAYSSLLTFHLSTPRSHHLYHARLWLHVLPTLPGTLCLRIFRWGPRRRRQGSRTLLAEHHITNLGWHTLTLPSSGLRGEKSGVLKLQLDCRPLEGNSTVTGQPRRLLDTAGHQQPFLELKIRANEPGAGRRRRRTPTCEPATPLCCRRDHYVDFQELGWRDWILQPEGYQLNYCSGQCPPHLAGSPGIAASFHSAVFSLLKANNPWPASTSCCVPTARRPLSLLYLDHNGNVVKTDVPDMVVEACGCS
In the case of B1, the “stoichiometry N” value is reported as 2.

B2: Flag-tagged mature Activin E from Construct II (ligand, human, UniProt P58166 237-350, looked up)
chain: TPTCEPATPLCCRRDHYVDFQELGWRDWILQPEGYQLNYCSGQCPPHLAGSPGIAASFHSAVFSLLKANNPWPASTSCCVPTARRPLSLLYLDHNGNVVKTDVPDMVVEACGCS
In the case of B2, the “stoichiometry N” value is reported as 2.
